Results on two molecules are retold here after patent publication US7648964B2, “Use of lacritin in promoting ocular cell survival” (University of Virginia Patent Foundation, priority 2004, dated 2010).

Test [1] relates to NFAT. The experiment in a line: NFAT changes by Western blotting in HSG cells. It is filed as cell-based, human. From the text:
There has been more evidence regarding PKC alpha translocation and NFAT activation.
In general terms: Immunoblotting shows a protein as a band on a membrane.

Test [2] deals with rat lacrimal acinar cells. The experiment in a line: Secretion by freshly isolated rat lacrimal acinar cells (peroxidase assay). It is filed as cell-based. As to the method: (§1) Freshly isolated rat lacrimal acinar cells, and HSG (human salivary gland) ductal and HCE (human corneal epithelial) cell lines were used to study lacritin function. For secretion studies, rat acinar cells were plated serum-free overnight on wells co-coated with 0.05 μM laminin 1 (to ensure adhesion) and 0 to 20 μM lacritin, or alternatively with laminin-1 (0.05 μM) and treated the next day with serum-free medium containing 0 to 162 ng/ml of soluble lacritin for four hours. Unstimulated and stimulated (carbachol 10^−4 M/VIP 10^−8 M) secretions were then collected, assessed (peroxidase assay) and normalized to μg cellular DNA. To study tyrosine phosphorylation, overnight serum-free cultures of both rat lacrimal acinar and HSG cells were washed and treated with 10 ng/ml of soluble lacritin for 0.5, 2.5, 10, and 30 minutes. […] Using an inverted Zeiss 510 LSM for visualization, 50 second baseline images were first recorded. While the laser was running, lacritin was added (final concentration 4 and 40 ng/ml) and the response continually monitored every 786 msec for a minimum of 200 sec.
Lacritin function of three types of epithelial cells was assessed in serum-free cultures of: 1) lacrimal acinar; 2) salivary ductal; and 3) corneal epithelial cells using secretion (acinar), proliferation (ductal), tyrosine phosphorylation (acinar, ductal) and calcium signaling (corneal epithelial) assays. […]

For test [3], the system named is Sertoli (TM3) cells. The test is described as follows: 3H-thymidine uptake mitogenesis assay. The format is cell-based, mouse. The method, then: (§2) For phosphotyrosine blotting and mitogenesis assays, cells in serum-containing media were seeded overnight in 24-well plates at a density of 0.5×10^5 cells/mm^2 corresponding to 20-30% confluency after cell attachment, incubated in serum-free media without supplements for 24 h (phosphotyrosine) or washed with serum-free media without supplements three times (mitogenesis) and incubated with lacritin (1-1000 nM), or positive controls EGF (1.6 nM) and 10% fetal bovine serum, or negative controls bovine serum albumin or no additive in serum-free media without supplements for the indicated times (phosphotyrosine) or 30 h (mitogenesis). […] After washing, bound antibodies were detected with peroxidase-labeled secondary antibody and ECL. […] Incorporation was stopped with ice-cold phosphate buffered saline and followed by addition of cold and then room temperature trichloracetic acid (10%) for 10 min each, washing of cells with phosphate buffered saline, solubilization with 1 N sodium hydroxide, neutralization with 1 N hydrochloric acid, addition of scintillation fluid and then quantitation in a scintillation counter. […] Seventy-two hours post-transfection, mitogenesis was assessed by co-addition of 10 […] lacritin and [^3H]-thymidine (2 mCi/ml) (Amersham, Piscataway N.J.) for 24 hrs. […]

Test [4] relates to Leydig (TM4) cells. The experiment in a line: 3H-thymidine uptake mitogenesis assay. It is filed as cell-based, mouse. As to the method:
as §2

The test system of test [5] is tyrosine phosphorylation of phosphoproteins in HSG cells. The experiment in a line: Phosphotyrosine blotting in HSG cells. The conditions noted are these: within the first minute. It is filed as cell-based, human. The method, then: as §2
The subject of test [6] is MUC16. The test is described as follows: MUC16 blot of human corneal epithelial cells. As to conditions: 10 nM. The format is cell-based. From the text:
MUC16 is an important mucin on the ocular surface. Mucin contributes to the tear film, is important for wetting the ocular surface, and is reduced in Sjogren's syndrome patients. […] Cells were blotted for MUC16.

In test [7] the test system is PLD. The experiment in a line: Endogenous PLD activity in HSG cells. It is filed as cell-based, human. As to conditions: bell-shaped activation curve. As to the method:
We measured endogenous PLD activity after lacritin addition and obtained a bell-shaped activation curve that was optimal at 10 nM lacritin, thus recapitulating the same dose dependency observed for mitogenesis, PKCα translocation and PKCα dephosphorylation. To determine whether PKCα was upstream of PLD in lacritin signaling, cells were transfected with D7 siRNA. […] Transiently hypophosphorylated perinuclear Golgi PKCα appears to have at least two roles. It complexes with PLCγ2 leading to IP3 generation and calcium mobilization. It also activates PLD1.

The subject of test [8] is human glioma (U-251-MG) cells. The experiment in a line: 3H-thymidine uptake mitogenesis assay. It is filed as cell-based. As to conditions: even at higher doses.
Test [9] relates to human glioma (U-1242-MG) cells. The test is described as follows: 3H-thymidine uptake mitogenesis assay. As to conditions: even at higher doses. The format is cell-based.
In test [10] the test system is human epidermal (A431) cells. The test is described as follows: 3H-thymidine uptake mitogenesis assay. It is filed as cell-based.
In test [11] the test system is mouse fibroblast (NIH/3T3) cells. The experiment in a line: 3H-thymidine uptake mitogenesis assay. The format is cell-based.
Test [12] relates to human corneal epithelial cells. The experiment in a line: Calcium signaling in human corneal epithelial cells (Fluo-3AM). The conditions noted are these: HCE cells. It is filed as cell-based. As to the method:
as §1, with “minutes. Py(20) anti-phosphotyrosine antibody immunoprecipitation of cell lysates was then examined in Western blots of 7% SDS PAGE gels using Py(20) and ECL for detection.” for “minutes.”

Test [13] has as its system 48 kDa band in HSG cells. The experiment in a line: Tyrosine phosphorylation of 48 kDa band, HSG cells. It is filed as cell-based, human. As to the method:
as §1, with “minutes. Py(20) anti-phosphotyrosine antibody immunoprecipitation of cell lysates was then examined in Western blots of 7% SDS PAGE gels using Py(20) and ECL for detection.” for “minutes.”

As for `Cn1c2ccccc2c2c3c(c4c5ccccc5n(CCC#N)c4c21)CNC3=O` [Go 6976], the “effect on lacritin-induced changes of NFAT” value in [1] was “abolish changes of NFAT”.

B1: lacritin: recombinant human lacritin from E. coli; mature 119 residue fragment (SEQ ID NO:10) of native lacritin SEQ ID NO:4 (protein, listed as Homo sapiens)
chain: EDASSDSTGADPAQEAGTSKPNEEISGPAEPASPPETTTTAQETSAAAVQGTAKVTSSRQELNPLKSIVEKSILLTEQALAKAGKGMHGGVPGGKQFIENGSEFAQKLLKKFSLLKPWA
Turning to B1, the stimulated secretory pathways entry in test [2] (activated by agonists carbachol and VIP) is given as “no effect”. Also, the unstimulated secretion result in test [2] (coated and soluble lacritin, serum-free) is given as “enhanced unstimulated secretion in a dose-dependent manner”. The mitogenesis result in test [3], in [4], in test [8], in test [9], in [10] and in test [11] was “not mitogenic” throughout. In [5], the “tyrosine phosphorylation of at least nine phosphoproteins” value is recorded as “transient tyrosine phosphorylation”. Moreover, the MUC16 secretion result in [6] is given as “greatly enhanced”. In [7], the “concentration of optimal PLD activation” value was 10 nM. Moreover, the “rapidity of lacritin-dependent calcium mobilization” value in test [12] was 20 to 30 s. Besides, the calcium signals entry in [12] (serum-free) was “rapid and sustained calcium waves”. Further, the “tyrosine phosphorylation of a 48 kDa band” value in test [13] is given as “promoted the transient tyrosine phosphorylation”.
